Biological target: T1, OsGSTU5 (Oryza sativa, UniProt Q0J294 6-233)
T1 sequence: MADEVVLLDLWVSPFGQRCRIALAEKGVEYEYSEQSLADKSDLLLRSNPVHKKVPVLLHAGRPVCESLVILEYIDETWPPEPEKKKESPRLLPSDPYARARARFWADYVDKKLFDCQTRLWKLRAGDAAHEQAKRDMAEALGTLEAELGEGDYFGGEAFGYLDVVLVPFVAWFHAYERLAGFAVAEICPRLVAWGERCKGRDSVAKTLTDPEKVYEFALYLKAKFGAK
Experiment: EMSA

B1: 39-nt experimental oligo (ssDNA) (ssDNA)
DNA: GCGGTGGAAGTAGCAACAGCGGTTCTAGCGGCAGCGGCG
B1: no binding.
